Ka, OD450 and 抗体效价 data for 4 substances are collected here from CN110616192A.

Where only a bound is given, the exact number is not on record here.

Assay [1] deals with 神经丝轻链(NEFL) (human) (UniProt P07196). Briefly: calculated from the indirect ELISA titre.
For assay [2] the target is unchanged. The experiment in a line: indirect ELISA, antigen coated at 5 μg/ml, antibody diluted 10^4-fold. A general note: ELISA stands for enzyme-linked immunosorbent assay.
Assay [3] has the same target. Briefly: indirect ELISA titre, serial two-fold dilution of purified antibody.

Sequence of UniProt P07196 (P07196 1-360 limits assumed): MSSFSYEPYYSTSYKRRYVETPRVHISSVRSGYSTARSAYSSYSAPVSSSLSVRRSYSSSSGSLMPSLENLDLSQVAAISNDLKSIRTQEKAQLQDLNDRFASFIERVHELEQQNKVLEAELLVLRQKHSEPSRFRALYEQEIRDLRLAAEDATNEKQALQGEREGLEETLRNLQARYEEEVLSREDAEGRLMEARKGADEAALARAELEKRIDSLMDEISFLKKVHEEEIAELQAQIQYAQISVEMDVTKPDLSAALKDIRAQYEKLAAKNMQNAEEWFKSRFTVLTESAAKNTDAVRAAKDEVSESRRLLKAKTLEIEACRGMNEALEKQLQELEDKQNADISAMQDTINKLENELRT

Turning to 抗人神经丝轻链(NEFL)单克隆抗体OTI11F6 (antibody), the Ka in assay [1] was 1.4e+09 M⁻¹. Moreover, the OD450 in assay [2] was above 1.5 OD450. Moreover, in assay [3], the 抗体效价 worked out at 1.02e+06.
In turn, 抗NEFL单克隆抗体OTI3G2 (antibody) yielded an OD450 in assay [2] above 1.5 OD450. This substance also gave a 抗体效价 in assay [3] of 512000.
The matching figures for 抗NEFL单克隆抗体OTI2F5 (antibody): above 1.5 OD450 and 1.02e+06.
The like results for 抗NEFL单克隆抗体OTI11F8 (antibody) were, in that order, above 1.5 OD450 and 512000.
